From article doi:10.1101/2023.04.17.536592 (bioRxiv, 2023)

T1: T. brucei histone H2A (Trypanosoma brucei brucei, UniProt Q57YA3 2-134)
T1 construct: also called Tb H2A
T1 sequence: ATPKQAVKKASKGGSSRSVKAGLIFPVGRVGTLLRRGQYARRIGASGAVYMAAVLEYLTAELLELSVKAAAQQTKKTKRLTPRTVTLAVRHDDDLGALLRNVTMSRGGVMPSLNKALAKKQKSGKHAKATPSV

B1: T. brucei histone H4 (natural protein)
chain: not shown
notes: also called Tb H4
B2: T. brucei histone H2B (natural protein, Trypanosoma brucei brucei)
chain: ATPKSTPAKTRKEAKKTRRQRKRTWNVYVSRSLRSINSQMSMTSRTMKIVNSFVNDLFERIAAEAATIVRVNRKRTLGARELQTAVRLVLPADLAKHAMAEGTKAVSHASS
notes: also called Tb H2B

Assays:
T. brucei histone H2B = target: B2; test: cryo-EM structure; conditions: both partners purified
T. brucei histone H2A = target: T1, T. brucei histone H2A; test: cryo-EM structure; conditions: both partners purified

Binder	binding result (T. brucei histone H2B)	binding result (T. brucei histone H2A)
B1	binds	
B2		binds
